The target in experiment [1] is T1, Flag-tagged TBC1 Domain Family Member 25 (TBC1D25) (UniProt Q3MII6-1 1-688).
T1 construct: Vector pcDNA5-flag or pHAGE-3xflag; The reverse primer carries the stop codon, so the tag is probably N-terminal; also called Flag-TBC1D25; OATL1; source: HEK-293T, transfected, in lysate (co-IP); immunopurified and eluted with FLAG peptide (GST pull-down)
T1 sequence (looked up): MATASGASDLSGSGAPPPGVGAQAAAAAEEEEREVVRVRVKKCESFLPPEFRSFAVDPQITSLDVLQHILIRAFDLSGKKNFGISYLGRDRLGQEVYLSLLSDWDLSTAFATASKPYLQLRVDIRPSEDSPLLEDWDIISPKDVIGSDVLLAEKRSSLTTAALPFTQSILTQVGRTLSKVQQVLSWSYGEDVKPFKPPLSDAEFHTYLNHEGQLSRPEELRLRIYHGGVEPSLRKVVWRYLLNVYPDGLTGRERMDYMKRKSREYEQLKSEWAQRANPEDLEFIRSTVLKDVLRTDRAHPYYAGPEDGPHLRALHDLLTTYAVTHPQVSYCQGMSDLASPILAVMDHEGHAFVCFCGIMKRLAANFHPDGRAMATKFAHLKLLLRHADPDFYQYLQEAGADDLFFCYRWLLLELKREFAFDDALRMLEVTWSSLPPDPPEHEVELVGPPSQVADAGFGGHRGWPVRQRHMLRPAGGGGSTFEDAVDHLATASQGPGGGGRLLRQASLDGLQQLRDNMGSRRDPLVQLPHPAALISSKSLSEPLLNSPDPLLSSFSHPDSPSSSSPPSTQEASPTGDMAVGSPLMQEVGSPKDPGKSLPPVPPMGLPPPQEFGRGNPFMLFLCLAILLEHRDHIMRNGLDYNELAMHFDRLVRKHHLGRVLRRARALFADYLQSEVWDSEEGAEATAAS
In words: pull-down; GST-HA-tagged protein from E. coli extracts held on glutathione-sepharose 4B beads, washed with PBS, incubated 4 h at 4 C with immunopurified Flag-tagged protein; washed with NaCl wash buffer; Western blot; GST tag as negative control. Particulars: both partners purified. For orientation: In western blotting, separated proteins are transferred to a membrane and probed.

The target in experiment [2] is T2, GST-HA-TBC1D25 (UniProt Q3MII6-1 1-688).
T2 construct: also called OATL1
T2 sequence (looked up): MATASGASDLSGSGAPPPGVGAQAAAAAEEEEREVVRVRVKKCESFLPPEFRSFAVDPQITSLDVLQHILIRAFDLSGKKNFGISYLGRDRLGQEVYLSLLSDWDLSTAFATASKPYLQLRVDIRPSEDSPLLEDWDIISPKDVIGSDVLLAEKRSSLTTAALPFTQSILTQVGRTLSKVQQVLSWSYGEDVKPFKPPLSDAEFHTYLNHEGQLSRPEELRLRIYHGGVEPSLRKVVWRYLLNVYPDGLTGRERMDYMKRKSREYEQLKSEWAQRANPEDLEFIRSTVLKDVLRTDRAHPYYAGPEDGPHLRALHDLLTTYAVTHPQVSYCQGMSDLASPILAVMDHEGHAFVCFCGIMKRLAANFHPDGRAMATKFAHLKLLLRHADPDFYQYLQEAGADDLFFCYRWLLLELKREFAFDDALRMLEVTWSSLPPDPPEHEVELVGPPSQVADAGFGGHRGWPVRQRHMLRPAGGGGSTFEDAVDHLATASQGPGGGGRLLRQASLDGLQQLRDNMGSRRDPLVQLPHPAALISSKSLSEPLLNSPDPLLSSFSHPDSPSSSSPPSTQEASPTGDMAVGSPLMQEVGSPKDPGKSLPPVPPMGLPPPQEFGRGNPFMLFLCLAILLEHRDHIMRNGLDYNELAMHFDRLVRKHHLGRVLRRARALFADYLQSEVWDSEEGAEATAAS
The description is as above. Particulars: both partners purified.

The source of these data is publication PMC7085222, “TBC1D25 Regulates Cardiac Remodeling Through TAK1 Signaling Pathway” (International Journal of Biological Sciences, 2020).

B1: GST-HA-TAK1 (enzyme, UniProt O43318-2 1-579, looked up)
chain: MSTASAASSSSSSSAGEMIEAPSQVLNFEEIDYKEIEVEEVVGRGAFGVVCKAKWRAKDVAIKQIESESERKAFIVELRQLSRVNHPNIVKLYGACLNPVCLVMEYAEGGSLYNVLHGAEPLPYYTAAHAMSWCLQCSQGVAYLHSMQPKALIHRDLKPPNLLLVAGGTVLKICDFGTACDIQTHMTNNKGSAAWMAPEVFEGSNYSEKCDVFSWGIILWEVITRRKPFDEIGGPAFRIMWAVHNGTRPPLIKNLPKPIESLMTRCWSKDPSQRPSMEEIVKIMTHLMRYFPGADEPLQYPCQYSDEGQSNSATSTGSFMDIASTNTSNKSDTNMEQVPATNDTIKRLESKLLKNQAKQQSESGRLSLGASRGSSVESLPPTSEGKRMSADMSEIEARIAATTGNGQPRRRSIQDLTVTGTEPGQVSSRSSSPSVRMITTSGPTSEKPTRSHPWTPDDSTDTNGSDNSIPMAYLTLDHQLQPLAPCPNSKESMAVFEQHCKMAQEYMKVQTEIALLLQRKQELVAELDQDEKDQQNTSRLVQEHKKLLDENKSLSTYYQQCKKQLEVIRSQQQKRQGTS
notes: also called pGEX-4T-1-GST-HA-TAK1; MAP3K7
Consider B1, for which the binding result in experiment [1] was “binds”.

B2: Flag-TAK1, immunopurified (enzyme, UniProt O43318-2 1-579, looked up)
chain: MSTASAASSSSSSSAGEMIEAPSQVLNFEEIDYKEIEVEEVVGRGAFGVVCKAKWRAKDVAIKQIESESERKAFIVELRQLSRVNHPNIVKLYGACLNPVCLVMEYAEGGSLYNVLHGAEPLPYYTAAHAMSWCLQCSQGVAYLHSMQPKALIHRDLKPPNLLLVAGGTVLKICDFGTACDIQTHMTNNKGSAAWMAPEVFEGSNYSEKCDVFSWGIILWEVITRRKPFDEIGGPAFRIMWAVHNGTRPPLIKNLPKPIESLMTRCWSKDPSQRPSMEEIVKIMTHLMRYFPGADEPLQYPCQYSDEGQSNSATSTGSFMDIASTNTSNKSDTNMEQVPATNDTIKRLESKLLKNQAKQQSESGRLSLGASRGSSVESLPPTSEGKRMSADMSEIEARIAATTGNGQPRRRSIQDLTVTGTEPGQVSSRSSSPSVRMITTSGPTSEKPTRSHPWTPDDSTDTNGSDNSIPMAYLTLDHQLQPLAPCPNSKESMAVFEQHCKMAQEYMKVQTEIALLLQRKQELVAELDQDEKDQQNTSRLVQEHKKLLDENKSLSTYYQQCKKQLEVIRSQQQKRQGTS
notes: Probably expressed in HEK-293T cells like the other Flag constructs; also called MAP3K7; source: immunopurified, eluted with FLAG peptide
Consider B2, for which the binding result in experiment [2] is on record as “binds”.
